# Measurements: US20240294650A1 (Alector, published 2024)
# Changes are numbered by the printed parent chain.
# T1: human MerTK (human, UniProt Q12866 21-999)
# T1 sequence: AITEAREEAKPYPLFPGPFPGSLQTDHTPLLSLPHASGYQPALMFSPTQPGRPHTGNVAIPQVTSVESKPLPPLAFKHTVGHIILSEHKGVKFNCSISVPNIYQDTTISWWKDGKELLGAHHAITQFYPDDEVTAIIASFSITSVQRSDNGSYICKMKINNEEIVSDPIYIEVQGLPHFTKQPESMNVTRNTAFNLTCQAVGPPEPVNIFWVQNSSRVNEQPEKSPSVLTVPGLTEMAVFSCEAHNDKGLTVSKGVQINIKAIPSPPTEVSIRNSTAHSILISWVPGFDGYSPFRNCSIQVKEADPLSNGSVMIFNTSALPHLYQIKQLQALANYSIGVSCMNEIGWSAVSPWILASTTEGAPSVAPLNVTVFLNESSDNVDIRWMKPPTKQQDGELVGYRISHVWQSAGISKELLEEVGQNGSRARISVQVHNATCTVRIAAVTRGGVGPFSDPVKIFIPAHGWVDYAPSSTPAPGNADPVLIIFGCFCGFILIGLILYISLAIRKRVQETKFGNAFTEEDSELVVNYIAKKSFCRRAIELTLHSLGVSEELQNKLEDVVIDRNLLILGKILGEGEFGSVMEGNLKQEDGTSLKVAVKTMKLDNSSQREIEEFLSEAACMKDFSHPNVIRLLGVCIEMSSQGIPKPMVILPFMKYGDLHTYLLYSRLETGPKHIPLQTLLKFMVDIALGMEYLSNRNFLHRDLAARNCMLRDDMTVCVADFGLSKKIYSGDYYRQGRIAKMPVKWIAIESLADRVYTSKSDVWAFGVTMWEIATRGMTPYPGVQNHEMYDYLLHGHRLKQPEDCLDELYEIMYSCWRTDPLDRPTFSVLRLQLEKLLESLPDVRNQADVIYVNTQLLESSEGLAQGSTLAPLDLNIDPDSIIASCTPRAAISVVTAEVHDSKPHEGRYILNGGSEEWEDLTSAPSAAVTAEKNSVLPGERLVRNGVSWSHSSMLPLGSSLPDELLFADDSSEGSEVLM
# T2: Recombinant human MerTK-human Fc Chimera protein (human, UniProt Q12866 26-499, limits assumed)
# T2 construct: bought construct; also called MerTK-Fc (R&D systems, Cat #391-MR-100)
# T2 sequence: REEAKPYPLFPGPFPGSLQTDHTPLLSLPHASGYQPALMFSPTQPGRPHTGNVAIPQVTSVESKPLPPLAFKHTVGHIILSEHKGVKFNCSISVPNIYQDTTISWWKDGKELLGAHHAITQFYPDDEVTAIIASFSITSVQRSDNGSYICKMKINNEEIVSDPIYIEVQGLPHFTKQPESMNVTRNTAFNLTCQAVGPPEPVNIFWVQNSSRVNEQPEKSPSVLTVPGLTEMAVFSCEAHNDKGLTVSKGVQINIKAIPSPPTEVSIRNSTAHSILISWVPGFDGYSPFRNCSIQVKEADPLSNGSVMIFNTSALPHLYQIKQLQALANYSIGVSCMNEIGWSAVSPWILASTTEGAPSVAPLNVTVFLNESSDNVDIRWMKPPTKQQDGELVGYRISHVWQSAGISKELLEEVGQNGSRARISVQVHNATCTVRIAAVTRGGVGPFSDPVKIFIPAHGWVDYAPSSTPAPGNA
# T3: Full Axl (ECD domain of human Axl) (human, UniProt P30530 26-451)
# T3 construct: also called human Axl ECD
# T3 sequence: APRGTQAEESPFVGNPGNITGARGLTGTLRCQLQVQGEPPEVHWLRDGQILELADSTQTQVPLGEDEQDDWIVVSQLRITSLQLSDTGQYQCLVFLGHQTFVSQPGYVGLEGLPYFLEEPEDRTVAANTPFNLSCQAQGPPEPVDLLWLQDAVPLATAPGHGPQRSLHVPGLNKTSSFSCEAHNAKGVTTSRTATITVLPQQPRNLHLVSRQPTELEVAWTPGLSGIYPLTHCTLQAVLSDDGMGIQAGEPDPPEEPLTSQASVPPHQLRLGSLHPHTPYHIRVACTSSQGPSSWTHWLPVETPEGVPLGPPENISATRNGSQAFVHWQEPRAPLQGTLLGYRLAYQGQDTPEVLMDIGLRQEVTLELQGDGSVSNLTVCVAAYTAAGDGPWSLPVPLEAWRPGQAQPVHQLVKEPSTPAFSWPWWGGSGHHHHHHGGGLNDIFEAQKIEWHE
# B1: MTK-215 (antibody, human IgG1, V domains shown)
# VH: EVQLVESGGGLVKPGGSLKLSCAASGFIFSDYGMHWVRQAPEKGLEWVAYISSGSSTIYYGDTVKGRFTISRDNAKNTLFLQMTSLRSEDTAMYYCAKGGRYGAMDYWGHGTSVTVSS
# VL: DIVLTQSPATLSVTPGDSVSLSCRASQSISNNLHWYQQKSHESPRLLIKNPSQSISGIPSRFGARGSGTDFTLIINSVETEDLGVYFCQQSNSWPFTFGSGTKLEIK
# B2: MTK-208 (antibody, human IgG1, V domains shown)
# VH: QVQLQQPGAELVVPGASVRLSCKASGYTFINYWMHWVKQRPGQGLEWIGEIDPSDSYANYNQKFKDKSTLSLDKSSSTAYMQLSSLTSEDSAVYYCARCDYYGRLDYWGQGTTLTVSS
# VL: QVVLTQSPAIMSASPGEKVTITCSASSSVSYMLWFQQKPGTSPKLWIYSTSNLASGVPARFSGSGSGTSYSLTISRLEAEDAATYYCQQRSSYPPITFGAGTKLELK
# B3: MTK-207 (antibody, human IgG1, V domains shown)
# VH: QVQLKESGPGLVAPSQSLSITCTVSGISLTSYGVSWVRQPPGKGLEWLGIIWGDGSTNYHSALISRLSISKDNSKSQVFLKLNSLQTDDTATYYCAKGRYGNYEDWYFDVWGTGTTVTVSS
# VL: DIQMTQSPASLSASVGETVTITCRASGNIHNYLAWYQQKQGKSPQLLVYNAKTLAAGVPSRFSGSGSGTQYSLKINSLQPEDFGSYYCQHFWSIPLTFGAGTKLELK
# B4: MTK-216 (antibody, human IgG1, V domains shown)
# VH: EVQLVESGGGLVKPGGSLKLSCAASGFTFSDYGMHWVRQAPEKGLEWVAFISSGSTTIYYADTVKGRFTISRDNAKNTLILQMTSLRSEDTAIYYCTRGGFHLDYWGQGTTLTVSS
# VL: SIMMTQSPSSLAVSAGEKVTMGCKSSQSVLYSANQQNYLAWYQQKPGQSLKLLIYWASTRESGVPDRFTGSGSGTDFTLTISSVQAEDLAVYYCHQYFSSWTFGGGTKLEIK
# B5: MTK-211 (antibody, human IgG1, V domains shown)
# VH: QVQLQQSGAELMKPGASVKLSCKATGYTFTGYWIEWVKQRPGHGLEWIGEILPGSGGSNYNEKFKGKATFTADTSSNTAYIQLSSLTTEDSAIYCCARGEPSYFSDAGFAYWGQGTLVTVSA
# VL: QIVLTQSPAVMSASPGEKVTMTCSASSSITYMHWYQQKPGTSPKRWIYDTSKLASGVPARFSGSGSGTSYFLTISSMEAEDVATYYCHQRSTYPYTFGGGTKLEIM
# B6: MTK-214 (antibody, human IgG1, V domains shown)
# VH: QVQLQQPGAELVKPGASVKVSCKASGYTFTNYWMHWMKQRPGQGLEWIGRIHPFDSDTNYNEKFTDKATLTVDKSSSTAYMQLSSLTSEDSAVYYCAIGTLIYWGQGTTLTASS
# VL: DILLTQSPATLSVTPGETVSLSCRASQSIYKKLHWFQQRSHRSPRLLIKFASDSISGIPSRFTGSGSGTDYTLSINSVKPEDEAIYYCLQGYSTPLTFGAGTKLELK
# B7: MTK-201 (antibody, human IgG1, V domains shown)
# VH: QVQLRQSGPGLVQPSQSLSITCTVSGFSLSNYGLHWVRQSPGKGLEWLGVIWSGGITDYNAAFISRLSIIKDNSRSQVFFKMNSLQADDTAIYYCARKGHDPYAMDFWGQGTSVTVSS
# VL: QIVLTQSPPIMSAFLGERVTMTCTASSSVSSSYLHWYRQMPGSSPKLWIYDTSNLASGVPARFSGSGSGTSYSLTISSMEAEDAATYYCHQYHHSPYTFGGGTKLEIK
# B8: MTK-230 (antibody, human IgG1, V domains shown)
# VH: EVQLQQSGPELVKPGASVRIPCKASGYTFSDYNMDWVKQSHGKSLEWIGNINPNIGGTIYSQKFKGKATLTVDKSSSTAYMELRSLTSEDTAVYYCARGDYGFASWGQGTLVTVSA
# VL: DIVLTQSPASLTVSLGQRATISCRASRSVSTSGYSYMHWYQQKPGQPPKLLIYLASNLESGVPARFSGSRSGTDFTLNIHPVEEEDAATYYCQHSREYPFTFGSGTKLEIK
# B9: MTK-203 (antibody, human IgG1, V domains shown)
# VH: QVQLQQPGAELVKPGASVKVSCKASGYTFTNYWMHWVKQRPGQGLEWIGRIHPFDTETNDNQKFKGKATLTVDKSSSTAYMQLSSLTSEDSAVYYCVIPANGGFAYWGQGTLVTVSA
# VL: ETTVTQSPASLSVATGEKVTIRCITSTDIGDDMNWYQQKPGEPPKVLISEGNSLRPGVPSRFSSSGYGTDFVFTIENTLSEDVADYFCLQSDNLPLTFGSGTKLEIK
# B10: MTK-224 (antibody, human IgG1, V domains shown)
# VH: QVQLQQPGAELVKPGASVKVSCKASGYTFTSYWMHWVKQRPGQGLEWIGRIHPFDSDTNYNQKFKGKATLTVDKSSSTAYMQLSSLTSEDSAVYYCSIAGFAYWGQGTLVTVSA
# VL: DIVMTQSPATLSVTPGDRVSLSCRASQIISDYLNWYQQKSHESPRLLIKYASQSISGIPSRFSGSGSGSDFTLSINSVEPEDVGVYYCQNGHSFPLTFGAGTKLELK
# B11: MTK-209 (antibody, human IgG1, V domains shown)
# VH: B10 VH with S31N, M34I, D57E, T58P, Q82H, S84T, S97A, I98L, G100S
# VL: ETTVTQSPASLSMAMGEKATIRCITSTDIDDKMNWYQQKPGKPPKLLISAGNTLRPGVPSRFSSSGYGTDFVLTVENMLSEDVADYYCLQGGALPLTFGSGTKLEIK
# Experiments:
# human MerTK = target: T1, human MerTK; test: cell-based or functional assay
# [1] = target: T2, Recombinant human MerTK-human Fc …; test: blocking ELISA, Gas6-His on MerTK-Fc, Ab 66.6 nM, isotype=100%
# Description: Briefly, rabbit anti-human IgG antibody (Jackson ImmunoResearch, Cat #309-005-008) was coated at 2 μg/ml onto high-protein binding plates at 4° C. overnight. After washing with 0.05% Tween20 in PBS three times, 5% BSA in PBS was added for 1 hour. Recombinant human MerTK-human Fe Chimera protein (R&D systems, Cat #391-MR-100) was added at 2 μg/ml for 1 hour and plates were washed before the addition of 40 μl of anti-MerTK hybridoma supernatants and 40 μl of His tag-conjugated recombinant Gas6 (R&D systems, Cat #885-GSB-050) at 3 μg/ml or His tag-conjugated recombinant ProS (R&D systems, Cat #9489-PS-100) at 20 μg/ml. After a further incubation for 1 hour, plates were washed and incubated for 1 hour with HRP-conjugated anti-6×His tagged antibody (Abcam, Cambridge, MA, Cat #ab1187). Plates were then washed and an HRP substrate, TMB, was added to develop the plates. The reaction was stopped by adding 50 μl 2N H₂SO₄ and the OD was measured using a spectrophotometer (BioTek).
# Anti-MerTK antibodies were titrated to a final concentration from 66.6 nM to 4 pM and tested against anti-human MerTK antibody M6 (disclosed in WO2016/106221) or isotype control antibody.
# [2] = target: T3, Full Axl (ECD domain of human Axl); test: SPR (data not shown)
# Description: Binding of anti-MerTK antibodies of the present disclosure to these domain-swapped chimera or deletion mutants was tested by Surface Plasmon Resonance (SPR) using Carterra LSA. Purified anti-MerTK antibodies were immobilized in duplicate on a HC30M chip (Carterra) by amine coupling, following the manufacturer's instructions (described previously).
# Supernatants containing the constructs were diluted 1:1 with running buffer containing 0.5 mg/mL BSA (HBS-TE, Carterra; BSA, Sigma) and injected over the immobilized antibodies. The surface was regenerated with 10 mM Glycine pH2.0 after each construct injection. Sensorgrams were analyzed using Carterra Epitope software to identify patterns of construct binding. Loss of binding to MerTK constructs with domains deleted or swapped in from Axl and/or gain of binding to Axl constructs with MerTK domains swapped in were evaluated. Data from these studies were used to construct a domain binding map for anti-MerTK antibodies and their binding to various domains of human MerTK.
Binder,"EC50 (nM), pAKT in SK-MEL-5 cells (human MerTK) [nM]",Fold increase in PAKT over IgG control (human MerTK) [fold],Percent Gas6 ligand binding [1] [%],binding result [2]
B1,208,2.6,110,–
B2,–,2.6,107,–
B3,–,1,116,–
B4,–,3.2,104,–
B5,–,4,115,–
B6,–,–,–,no binding
B7,0.65,4.3,112,–
B8,–,–,–,no binding
B9,–,–,–,no binding
B10,–,–,–,no binding
B11,–,–,–,no binding
